In one data set the target is T1, ELXR1-ZNF10 (#1.B) (synthetic construct).
T1 chain: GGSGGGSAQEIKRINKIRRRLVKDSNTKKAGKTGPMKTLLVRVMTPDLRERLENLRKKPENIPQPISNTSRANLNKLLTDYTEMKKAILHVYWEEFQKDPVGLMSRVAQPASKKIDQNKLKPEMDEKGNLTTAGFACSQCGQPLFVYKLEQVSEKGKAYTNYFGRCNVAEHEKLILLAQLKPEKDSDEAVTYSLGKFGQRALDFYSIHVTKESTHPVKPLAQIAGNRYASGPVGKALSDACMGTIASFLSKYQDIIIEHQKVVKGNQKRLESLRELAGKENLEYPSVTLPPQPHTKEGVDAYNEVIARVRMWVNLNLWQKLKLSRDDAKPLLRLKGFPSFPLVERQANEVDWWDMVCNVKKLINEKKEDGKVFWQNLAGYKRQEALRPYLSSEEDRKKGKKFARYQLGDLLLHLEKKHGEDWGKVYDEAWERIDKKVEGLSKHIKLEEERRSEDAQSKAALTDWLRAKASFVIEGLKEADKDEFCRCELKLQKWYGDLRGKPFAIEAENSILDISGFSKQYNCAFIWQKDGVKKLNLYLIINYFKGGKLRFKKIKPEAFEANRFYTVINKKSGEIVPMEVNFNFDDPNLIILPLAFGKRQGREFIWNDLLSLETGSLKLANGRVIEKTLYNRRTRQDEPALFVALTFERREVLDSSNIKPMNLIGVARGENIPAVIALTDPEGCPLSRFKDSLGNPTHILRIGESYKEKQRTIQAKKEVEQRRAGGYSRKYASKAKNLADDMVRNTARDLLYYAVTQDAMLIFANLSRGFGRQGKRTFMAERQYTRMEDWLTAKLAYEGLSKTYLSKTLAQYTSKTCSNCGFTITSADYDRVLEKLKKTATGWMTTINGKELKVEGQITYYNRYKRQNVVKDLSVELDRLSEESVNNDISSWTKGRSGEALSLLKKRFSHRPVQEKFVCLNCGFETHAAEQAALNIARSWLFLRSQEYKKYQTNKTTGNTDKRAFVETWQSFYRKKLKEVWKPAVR
In words: cell_activity; PAM TTC; day 50. The settings on record: tags: DNMT3A CD, DNMT3L ID, ZNF10 KRAB fusion, NLS.

The target of another data set is T2, ELXR4-ZIM3 (#4.A) (synthetic construct).
T2 chain: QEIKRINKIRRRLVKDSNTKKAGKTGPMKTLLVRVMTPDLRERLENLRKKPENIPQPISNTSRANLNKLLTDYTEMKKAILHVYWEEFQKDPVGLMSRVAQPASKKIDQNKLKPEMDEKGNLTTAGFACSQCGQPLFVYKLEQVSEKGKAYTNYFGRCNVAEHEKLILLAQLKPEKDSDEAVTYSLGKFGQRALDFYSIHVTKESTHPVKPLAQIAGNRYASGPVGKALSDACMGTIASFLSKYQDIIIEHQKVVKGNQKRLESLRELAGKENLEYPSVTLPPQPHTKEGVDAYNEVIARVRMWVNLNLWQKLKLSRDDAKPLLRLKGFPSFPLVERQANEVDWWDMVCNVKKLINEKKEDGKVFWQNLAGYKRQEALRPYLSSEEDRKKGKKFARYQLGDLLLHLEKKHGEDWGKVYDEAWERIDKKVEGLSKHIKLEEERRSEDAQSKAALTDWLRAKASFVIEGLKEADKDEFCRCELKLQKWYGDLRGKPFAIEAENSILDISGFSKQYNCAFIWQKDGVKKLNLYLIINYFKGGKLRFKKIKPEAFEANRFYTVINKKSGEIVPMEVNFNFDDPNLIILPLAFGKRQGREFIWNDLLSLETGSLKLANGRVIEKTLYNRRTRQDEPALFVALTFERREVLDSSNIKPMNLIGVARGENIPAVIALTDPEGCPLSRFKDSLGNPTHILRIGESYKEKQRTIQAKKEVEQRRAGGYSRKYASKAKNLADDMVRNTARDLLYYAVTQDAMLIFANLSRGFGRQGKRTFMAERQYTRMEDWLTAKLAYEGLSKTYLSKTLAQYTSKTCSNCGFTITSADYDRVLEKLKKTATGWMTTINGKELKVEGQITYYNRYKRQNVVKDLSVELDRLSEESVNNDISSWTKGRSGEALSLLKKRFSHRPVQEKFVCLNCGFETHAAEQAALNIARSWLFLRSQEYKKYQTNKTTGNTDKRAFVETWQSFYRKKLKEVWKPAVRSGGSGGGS
Description: cell_activity; PAM TTC; day 73. The conditions noted are these: tags: DNMT3A CD, DNMT3L ID, ZIM3 KRAB fusion, NLS.

For a further data set, the target named is ELXR5-ZNF10 (#5.B) (synthetic construct). Description: cell_activity; PAM TTC; day 73. The conditions noted are these: tags: DNMT3A CD, DNMT3L ID, ZNF10 KRAB fusion, NLS.
A further data set has as its target T3, ELXR4-ZNF10 (#4.B) (synthetic construct).
T3 chain: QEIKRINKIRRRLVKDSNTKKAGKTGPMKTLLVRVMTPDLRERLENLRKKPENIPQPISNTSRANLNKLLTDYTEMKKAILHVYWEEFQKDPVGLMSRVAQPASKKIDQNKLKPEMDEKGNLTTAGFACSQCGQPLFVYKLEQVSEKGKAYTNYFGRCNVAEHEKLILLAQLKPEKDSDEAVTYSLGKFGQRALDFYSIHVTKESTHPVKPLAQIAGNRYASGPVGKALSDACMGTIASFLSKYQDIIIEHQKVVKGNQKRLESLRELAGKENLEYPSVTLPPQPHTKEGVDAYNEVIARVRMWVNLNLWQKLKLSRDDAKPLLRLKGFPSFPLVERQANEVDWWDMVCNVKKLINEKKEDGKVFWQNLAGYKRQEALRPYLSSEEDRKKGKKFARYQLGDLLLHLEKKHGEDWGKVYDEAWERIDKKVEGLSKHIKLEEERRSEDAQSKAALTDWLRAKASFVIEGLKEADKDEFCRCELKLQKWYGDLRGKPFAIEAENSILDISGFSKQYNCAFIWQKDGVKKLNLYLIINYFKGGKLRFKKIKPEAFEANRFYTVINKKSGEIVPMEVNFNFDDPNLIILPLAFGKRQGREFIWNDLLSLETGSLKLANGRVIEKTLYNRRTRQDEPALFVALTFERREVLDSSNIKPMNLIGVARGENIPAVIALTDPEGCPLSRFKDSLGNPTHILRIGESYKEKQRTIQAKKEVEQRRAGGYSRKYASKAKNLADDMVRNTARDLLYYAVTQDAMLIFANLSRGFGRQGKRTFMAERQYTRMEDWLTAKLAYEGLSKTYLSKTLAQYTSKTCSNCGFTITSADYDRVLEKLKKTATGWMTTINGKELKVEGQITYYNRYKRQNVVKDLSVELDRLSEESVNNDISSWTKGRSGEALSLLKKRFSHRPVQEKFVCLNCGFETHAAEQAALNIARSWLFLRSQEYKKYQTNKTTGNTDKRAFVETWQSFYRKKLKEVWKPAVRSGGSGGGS
Description: cell_activity; PAM TTC; day 73. The conditions noted are these: tags: DNMT3A CD, DNMT3L ID, ZNF10 KRAB fusion, NLS.

A further data set deals with ELXR5-ZIM3 (#5.A) (synthetic construct). In words: cell_activity; PAM TTC; day 73. The settings on record: tags: DNMT3A CD, DNMT3L ID, ZIM3 KRAB fusion, NLS.

Drawing on patent US20240392271, “ENGINEERED CASX REPRESSOR SYSTEMS” (Scribe Therapeutics Inc., published 2024), this text covers activity for one molecule.

Chain of ELXR5-ZIM3 (#5.A) (synthetic construct) (chain, as listed by the source): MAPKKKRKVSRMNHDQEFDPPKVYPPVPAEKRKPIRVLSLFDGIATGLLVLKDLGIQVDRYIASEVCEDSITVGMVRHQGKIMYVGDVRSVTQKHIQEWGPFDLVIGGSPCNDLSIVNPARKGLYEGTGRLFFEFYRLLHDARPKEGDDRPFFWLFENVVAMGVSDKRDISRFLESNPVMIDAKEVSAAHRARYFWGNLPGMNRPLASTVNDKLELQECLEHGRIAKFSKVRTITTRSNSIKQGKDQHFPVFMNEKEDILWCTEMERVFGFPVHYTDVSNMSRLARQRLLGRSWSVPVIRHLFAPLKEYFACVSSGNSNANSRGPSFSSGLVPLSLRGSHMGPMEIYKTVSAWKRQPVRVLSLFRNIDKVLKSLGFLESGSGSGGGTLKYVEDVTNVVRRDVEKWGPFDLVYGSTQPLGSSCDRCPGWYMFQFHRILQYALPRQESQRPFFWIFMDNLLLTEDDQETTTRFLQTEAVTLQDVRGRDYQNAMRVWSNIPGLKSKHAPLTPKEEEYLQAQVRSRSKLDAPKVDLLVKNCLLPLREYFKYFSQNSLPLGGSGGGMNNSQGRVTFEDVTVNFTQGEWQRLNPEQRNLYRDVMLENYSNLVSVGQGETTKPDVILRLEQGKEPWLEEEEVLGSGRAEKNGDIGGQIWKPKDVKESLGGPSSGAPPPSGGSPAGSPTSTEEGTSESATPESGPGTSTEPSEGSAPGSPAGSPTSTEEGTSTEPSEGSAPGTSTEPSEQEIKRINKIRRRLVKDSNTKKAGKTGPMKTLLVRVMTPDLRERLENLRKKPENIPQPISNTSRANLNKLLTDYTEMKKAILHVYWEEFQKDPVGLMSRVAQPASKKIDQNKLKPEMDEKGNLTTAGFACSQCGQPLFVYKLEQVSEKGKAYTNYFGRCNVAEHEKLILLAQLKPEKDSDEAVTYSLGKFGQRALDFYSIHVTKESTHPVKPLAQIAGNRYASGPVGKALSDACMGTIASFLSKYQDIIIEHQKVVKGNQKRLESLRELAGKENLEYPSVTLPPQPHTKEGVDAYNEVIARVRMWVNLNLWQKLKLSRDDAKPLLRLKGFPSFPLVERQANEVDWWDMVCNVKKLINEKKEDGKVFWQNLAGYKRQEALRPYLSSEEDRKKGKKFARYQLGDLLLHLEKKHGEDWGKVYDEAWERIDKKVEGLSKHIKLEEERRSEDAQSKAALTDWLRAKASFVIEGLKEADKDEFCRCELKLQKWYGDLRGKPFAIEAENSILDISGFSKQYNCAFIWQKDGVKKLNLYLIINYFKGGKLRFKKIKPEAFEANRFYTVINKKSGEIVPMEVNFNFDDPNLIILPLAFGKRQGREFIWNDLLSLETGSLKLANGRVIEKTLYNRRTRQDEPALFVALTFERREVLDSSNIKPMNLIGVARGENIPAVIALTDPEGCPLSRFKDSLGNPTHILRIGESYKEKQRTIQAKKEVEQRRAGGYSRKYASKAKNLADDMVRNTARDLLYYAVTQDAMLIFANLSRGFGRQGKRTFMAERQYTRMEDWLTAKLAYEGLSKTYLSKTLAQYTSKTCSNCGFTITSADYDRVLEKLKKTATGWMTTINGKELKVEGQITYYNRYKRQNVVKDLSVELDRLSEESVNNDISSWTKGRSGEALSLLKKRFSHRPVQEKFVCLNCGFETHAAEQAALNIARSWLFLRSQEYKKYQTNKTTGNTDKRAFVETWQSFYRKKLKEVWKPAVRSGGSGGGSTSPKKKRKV
Chain of ELXR5-ZNF10 (#5.B) (synthetic construct) (chain, as listed by the source): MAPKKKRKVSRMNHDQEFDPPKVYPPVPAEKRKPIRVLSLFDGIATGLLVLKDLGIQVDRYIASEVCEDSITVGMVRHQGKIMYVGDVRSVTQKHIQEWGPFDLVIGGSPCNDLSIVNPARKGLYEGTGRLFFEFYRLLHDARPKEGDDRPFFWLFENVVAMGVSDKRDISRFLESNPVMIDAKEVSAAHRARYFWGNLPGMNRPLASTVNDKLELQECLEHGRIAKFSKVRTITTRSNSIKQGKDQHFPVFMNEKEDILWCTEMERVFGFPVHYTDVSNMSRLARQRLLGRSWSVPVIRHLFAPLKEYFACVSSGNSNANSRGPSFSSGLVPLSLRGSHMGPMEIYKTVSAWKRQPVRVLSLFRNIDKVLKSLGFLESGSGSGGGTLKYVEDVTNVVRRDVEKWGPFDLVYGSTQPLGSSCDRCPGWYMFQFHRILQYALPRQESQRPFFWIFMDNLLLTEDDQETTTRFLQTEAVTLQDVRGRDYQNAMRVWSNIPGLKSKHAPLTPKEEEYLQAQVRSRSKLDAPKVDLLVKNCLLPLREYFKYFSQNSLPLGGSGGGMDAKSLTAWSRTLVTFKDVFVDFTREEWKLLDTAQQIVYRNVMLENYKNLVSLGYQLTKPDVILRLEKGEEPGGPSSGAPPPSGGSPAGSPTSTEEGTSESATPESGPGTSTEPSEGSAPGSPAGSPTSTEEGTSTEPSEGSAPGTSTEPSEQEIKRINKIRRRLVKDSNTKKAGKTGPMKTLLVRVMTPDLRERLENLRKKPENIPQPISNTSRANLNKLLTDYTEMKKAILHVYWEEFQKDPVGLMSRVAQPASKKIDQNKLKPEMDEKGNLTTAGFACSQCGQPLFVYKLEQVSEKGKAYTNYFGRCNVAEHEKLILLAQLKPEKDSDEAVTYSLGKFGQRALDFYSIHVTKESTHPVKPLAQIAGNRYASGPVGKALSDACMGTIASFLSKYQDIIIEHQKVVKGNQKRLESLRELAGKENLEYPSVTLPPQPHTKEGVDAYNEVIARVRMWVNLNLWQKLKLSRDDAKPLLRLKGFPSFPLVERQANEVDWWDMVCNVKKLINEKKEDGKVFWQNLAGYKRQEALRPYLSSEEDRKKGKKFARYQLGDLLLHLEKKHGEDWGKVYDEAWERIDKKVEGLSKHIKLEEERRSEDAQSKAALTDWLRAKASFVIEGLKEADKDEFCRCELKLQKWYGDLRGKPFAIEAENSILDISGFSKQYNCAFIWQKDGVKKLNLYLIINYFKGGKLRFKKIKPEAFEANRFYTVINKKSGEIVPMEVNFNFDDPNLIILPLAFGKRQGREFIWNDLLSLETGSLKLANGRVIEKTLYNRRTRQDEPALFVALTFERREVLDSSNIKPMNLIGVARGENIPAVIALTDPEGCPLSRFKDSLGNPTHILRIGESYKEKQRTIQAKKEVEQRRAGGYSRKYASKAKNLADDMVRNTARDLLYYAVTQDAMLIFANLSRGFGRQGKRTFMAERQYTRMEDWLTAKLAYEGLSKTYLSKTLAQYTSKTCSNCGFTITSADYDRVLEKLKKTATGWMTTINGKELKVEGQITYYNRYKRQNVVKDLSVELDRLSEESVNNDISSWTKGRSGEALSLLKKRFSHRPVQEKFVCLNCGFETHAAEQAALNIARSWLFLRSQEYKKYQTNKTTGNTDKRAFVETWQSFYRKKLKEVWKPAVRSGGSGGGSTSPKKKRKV

B1: gRNA scaffold 174 + spacer 7.37 ; B2M target 7.37 (ssRNA ; dsDNA)
RNA: ACUGGCGCUUUUAUCUGAUUACUUUGAGAGCCAUCACCAGCGACUAUGUCGUAGUGGGUAAAGCUCCCUCUUCGGAGGGAGCAUCAAAGGGCCGAGAUGUCUCGCUCCG
DNA 1: GGCCGAGATGTCTCGCTCCG
DNA 2: CGGAGCGAGACATCTCGGCC
Regarding B1, the activity with ELXR1-ZNF10 (#1.B) is 70 % HLA-negative cells; with ELXR4-ZIM3 (#4.A) it was 69 % HLA-negative cells; with ELXR5-ZNF10 (#5.B), 60.8 % HLA-negative cells; with ELXR4-ZNF10 (#4.B), 55.2 % HLA-negative cells; in the data set with ELXR5-ZIM3 (#5.A) it was 74.9 % HLA-negative cells.
